Results reported in article doi:10.1101/2025.05.06.651509 (bioRxiv, 2025).
Substitutions are numbered along the chain they refer to. Names may count otherwise.

B1: recombinant TSC22D4 (natural protein, human, UniProt Q9Y3Q8 1-395, looked up)
chain: MSGGKKKSSFQITSVTTDYEGPGSPGASDPPTPQPPTGPPPRLPNGEPSPDPGGKGTPRNGSPPPGAPSSRFRVVKLPHGLGEPYRRGRWTCVDVYERDLEPHSFGGLLEGIRGASGGAGGRSLDSRLELASLGLGAPTPPSGLSQGPTSWLRPPPTSPGPQARSFTGGLGQLVVPSKAKAEKPPLSASSPQQRPPEPETGESAGTSRAATPLPSLRVEAEAGGSGARTPPLSRRKAVDMRLRMELGAPEEMGQVPPLDSRPSSPALYFTHDASLVHKSPDPFGAVAAQKFSLAHSMLAISGHLDSDDDSGSGSLVGIDNKIEQAMDLVKSHLMFAVREEVEVLKEQIRELAERNAALEQENGLLRALASPEQLAQLPSSGVPRLGPPAPNGPSV
modifications: RED-tris-NTA dye on the His tag (labelled copy only)
B2: TSC22D4 I322W (natural protein, human, UniProt Q9Y3Q8 1-395, looked up)
chain: B1 chain with I322W

Molecular target: the molecule itself
Experiment: MST

Row | Protein | binding result
1 | B1 | binds
2 | B2 | binds
